Experimental data published in US20040018971A1 (published 2004).

Key:
[1] = biological target: HLA-A*1101 (human); assay: inhibition of 125I-labelled probe peptide binding to purified HLA-A*1101, gel filtration
[2] = biological target: HLA-A*0301 (human); assay: inhibition of 125I-labelled standard peptide binding to purified HLA, gel filtration
[3] = biological target: HLA-A*1101 (human); assay: as above
[4] = biological target: HLA-B*0702 (human); assay: competition vs 125I-labeled standard peptide, purified HLA
[5] = biological target: HLA-B*5401 (human); assay: as above
[6] = biological target: HLA-B*5301 (human); assay: as above
[7] = biological target: HLA-B*5101 (human); assay: as above
[8] = biological target: HLA-B*0702 (human); assay: competition with 125I probe peptide, purified HLA
[9] = biological target: HLA-B*5101 (human); assay: competition with 125I probe peptide, purified HLA
[10] = biological target: T1, HLA-A*0201 (human); assay: competition with 125I-labelled standard peptide 941.01 ([..]) on purified HLA, gel filtration
T1 construct: also called HLA-A2.1

GAGGMVHHR [HER2/neu peptide, position 1038, 9 amino acids]
relative binding ratio (IC50 of standard peptide / IC50 of test peptide) [1]: 0.0043 relative binding ratio

GTQRCEKCSK [HER2/neu peptide, position 327, 10 amino acids]
relative binding ratio (IC50 of standard peptide / IC50 of test peptide) [1]: 0.61 relative binding ratio

TLIDTNRSR (Synthetic A3 supermotif peptide) [HER2/neu peptide, position 182, 9 amino acids]
relative binding ratio [2]: 0.0004 ratio (IC50 of standard peptide / IC50 of test peptide)
relative binding ratio [3]: 0.0005 ratio (IC50 of standard peptide / IC50 of test peptide)

B1: Her2/neu.706.F1I10 (peptide)
peptide: FPNQAQMRII
notes: 10-mer analog of the HER2/neu peptide starting at position 706
IC50 [4]: 290 nM
IC50 [5]: 59 nM
IC50 [6]: 490 nM
IC50 [7]: 76 nM

HADGGKVPIK [HER2/neu peptide, position 878, 10 amino acids]
relative binding ratio (IC50 of standard peptide / IC50 of test peptide) [1]: 0.0008 relative binding ratio

GMEHLREVR [HER2/neu peptide, position 346, 9 amino acids]
relative binding ratio (IC50 of standard peptide / IC50 of test peptide) [1]: -0.0002 relative binding ratio

EVTAEDGTQR [HER2/neu peptide, position 321, 10 amino acids]
relative binding ratio (IC50 of standard peptide / IC50 of test peptide) [1]: 0.0001 relative binding ratio

B2: Her2/neu.698.F1I9 (peptide)
peptide: FPLTPSGAI
notes: 9-mer analog of the HER2/neu peptide starting at position 698
IC50 [4]: 0.9 nM
IC50 [5]: 1.9 nM
IC50 [7]: 9.2 nM

B3: Her2/neu.642.F1I10 (peptide)
peptide: FPAEQRASPI
notes: 10-mer analog of the HER2/neu peptide starting at position 642
IC50 [4]: 3.1 nM
IC50 [5]: 56 nM
IC50 [6]: 4900 nM
IC50 [7]: 98 nM

GSGAFGTVYK [HER2/neu peptide, position 727, 10 amino acids]
relative binding ratio (IC50 of standard peptide / IC50 of test peptide) [1]: 0.13 relative binding ratio

B4: Her2/neu.65 (10-mer) (peptide)
peptide: LPTNASLSFL
notes: native HER2/neu peptide from position 65
IC50 [8]: 290 nM
IC50 [9]: 2500 nM

B5: Her2/neu.649, 10-mer (peptide)
peptide: SPLTSIISAV
notes: 10-mer native HER2/neu peptide starting at position 649
IC50 [4]: 61 nM
IC50 [5]: 667 nM

GISWLGLRSL (Synthetic peptide) [HER2/neu A02 supermotif peptide, position 449, 10 amino acids]
relative binding ratio [10]: 0.0003 ratio (IC50 of standard peptide / IC50 of test peptide)

GVVFGILIK (T0001 prints T at residue 673) [HER2/neu peptide, position 668, 9 amino acids]
relative binding ratio (IC50 of standard peptide / IC50 of test peptide) [1]: 0.089 relative binding ratio

TVPWDQLFR (Synthetic A3 supermotif peptide) [HER2/neu peptide, position 479, 9 amino acids]
relative binding ratio [2]: 0.0006 ratio (IC50 of standard peptide / IC50 of test peptide)
relative binding ratio [3]: 0.0072 ratio (IC50 of standard peptide / IC50 of test peptide)

GILIKRRQQK [HER2/neu peptide, position 672, 10 amino acids]
relative binding ratio (IC50 of standard peptide / IC50 of test peptide) [1]: 0.0014 relative binding ratio

GATLERPKTL (Synthetic peptide) [HER2/neu A02 supermotif peptide, position 1164, 10 amino acids]
relative binding ratio [10]: 0.0002 ratio (IC50 of standard peptide / IC50 of test peptide)

WPDSLPDI (analog peptide) [Her2/neu.415.I8]
IC50 [8]: 71 nM
IC50 [9]: 5000 nM

PTHDPSPLQR [HER2/neu peptide, position 1102, 10 amino acids]
relative binding ratio [2]: 0.0003 ratio (IC50 of standard peptide / IC50 of test peptide)
relative binding ratio [3]: 0.0001 ratio (IC50 of standard peptide / IC50 of test peptide)

GILLVVVLGV (Synthetic peptide) [HER2/neu A02 supermotif peptide, position 660, 10 amino acids]
relative binding ratio [10]: 0.0007 ratio (IC50 of standard peptide / IC50 of test peptide)

QALLHTANR (Synthetic A3 supermotif peptide) [HER2/neu peptide, position 491, 9 amino acids]
relative binding ratio [2]: 0.0046 ratio (IC50 of standard peptide / IC50 of test peptide)
relative binding ratio [3]: 0.001 ratio (IC50 of standard peptide / IC50 of test peptide)

B6: Her2/neu.760.F1I9 (peptide)
peptide: FPKANKEII
notes: 9-mer analog of the HER2/neu peptide starting at position 760
IC50 [4]: 8.5 nM
IC50 [5]: 39 nM
IC50 [6]: 7150 nM
IC50 [7]: 55 nM

ETEYHADGGK [HER2/neu peptide, position 874, 10 amino acids]
relative binding ratio (IC50 of standard peptide / IC50 of test peptide) [1]: 0.0001 relative binding ratio

GIPAREIPDL (Synthetic peptide) [HER2/neu A02 supermotif peptide, position 925, 10 amino acids]
relative binding ratio [10]: 0.0001 ratio (IC50 of standard peptide / IC50 of test peptide)

PLQRLRIVR (Synthetic A3 supermotif peptide) [HER2/neu peptide, position 95, 9 amino acids]
relative binding ratio [2]: 0.0002 ratio (IC50 of standard peptide / IC50 of test peptide)
relative binding ratio [3]: 0.0001 ratio (IC50 of standard peptide / IC50 of test peptide)

ELHCPALVTY [HER2/neu peptide, position 265, 10 amino acids]
relative binding ratio (IC50 of standard peptide / IC50 of test peptide) [1]: 0.0002 relative binding ratio

NIQEFAGCKK (Synthetic A3 supermotif peptide) [HER2/neu peptide, position 360, 10 amino acids]
relative binding ratio [2]: 0.0003 ratio (IC50 of standard peptide / IC50 of test peptide)
relative binding ratio [3]: 0.0056 ratio (IC50 of standard peptide / IC50 of test peptide)

B7: Her2/neu.605 (peptide)
peptide: KPDLSYMPI
notes: native HER2/neu peptide from position 605
IC50 [8]: 76 nM
IC50 [9]: 2500 nM

ELMTFGAKPY [HER2/neu peptide, position 914, 10 amino acids]
relative binding ratio (IC50 of standard peptide / IC50 of test peptide) [1]: 0.0002 relative binding ratio
